The results in this text go back to US20140072563A1 (Regeneron, published 2014).

T1: hErbB3.mFc (soluble dimeric human ErbB3 extracellular domain fused to mouse Fc) (human)
T1 construct: called dimeric
T1 chain: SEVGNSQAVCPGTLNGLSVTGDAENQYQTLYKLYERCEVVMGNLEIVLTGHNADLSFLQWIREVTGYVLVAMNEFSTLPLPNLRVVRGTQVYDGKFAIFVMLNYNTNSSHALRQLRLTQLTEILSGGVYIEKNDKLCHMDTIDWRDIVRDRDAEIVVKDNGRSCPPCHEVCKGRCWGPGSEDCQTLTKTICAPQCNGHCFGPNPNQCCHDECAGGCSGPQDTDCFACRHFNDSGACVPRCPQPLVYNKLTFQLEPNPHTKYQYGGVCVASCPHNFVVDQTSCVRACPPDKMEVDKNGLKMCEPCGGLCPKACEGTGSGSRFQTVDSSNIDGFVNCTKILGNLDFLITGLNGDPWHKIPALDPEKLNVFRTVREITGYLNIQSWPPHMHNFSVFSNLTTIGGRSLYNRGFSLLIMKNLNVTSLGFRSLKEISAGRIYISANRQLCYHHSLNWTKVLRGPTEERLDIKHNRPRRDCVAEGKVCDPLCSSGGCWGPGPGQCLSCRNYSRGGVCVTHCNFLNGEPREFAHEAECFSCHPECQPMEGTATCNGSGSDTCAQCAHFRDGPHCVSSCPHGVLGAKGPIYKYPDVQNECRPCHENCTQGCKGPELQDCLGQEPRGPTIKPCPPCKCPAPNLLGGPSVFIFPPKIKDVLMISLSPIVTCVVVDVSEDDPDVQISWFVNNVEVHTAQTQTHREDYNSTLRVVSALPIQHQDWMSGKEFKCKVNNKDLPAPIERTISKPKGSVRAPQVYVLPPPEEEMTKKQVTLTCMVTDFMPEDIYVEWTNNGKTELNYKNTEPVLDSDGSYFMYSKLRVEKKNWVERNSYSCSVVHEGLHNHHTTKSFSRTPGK

T2: ErbB3-mFc (human)
T2 construct: Dimeric soluble ErbB3; also called hErbB3.mFc
T2 chain: T1 chain

B1: H4H2146P (antibody, V domains shown)
VH: QVQLVESGGGVVQPGRSLRLSCAASGFTFINYGIHWVRQGPGKGLEWVAVIWYDGSNEWYADSVKGRFTISRDNSKNTVYLEMNKLRAEDTAVYYCAREEEDYGMDVWGQGTTVTVSS
VL: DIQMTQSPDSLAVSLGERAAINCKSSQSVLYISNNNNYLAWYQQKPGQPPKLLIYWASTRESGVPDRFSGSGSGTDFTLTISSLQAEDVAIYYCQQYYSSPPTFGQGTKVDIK
notes: Fully human, human IgG4 Fc (H4H prefix)
B2: H4H2153P (antibody, V domains shown)
VH: QVQLVQSGAEVKKPGASVKVSCKASGYTFTRYGISWVRQAPGLGLEWMGWISAYDGYTNFAQKFQGRFTMTTDTSTNTAYMELRGLRSDDTAVYYCAREEEDAAFDIWGQGTMVTVSS
VL: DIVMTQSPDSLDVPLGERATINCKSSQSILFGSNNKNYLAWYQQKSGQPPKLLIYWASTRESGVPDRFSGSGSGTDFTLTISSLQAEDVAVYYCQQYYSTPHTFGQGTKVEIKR
notes: as for B1
B3: H4H2290P (antibody, V domains shown)
VH: EVQLLESGGGLVQPGGSLRLSCVASGFTFSSFAMSWVRQAPGKGLEWVSVISGSGGSTNHADSVRGRFTISRDNSLNTVYLQMHSLRAEDTALYYCVKAETSSSYFYYGMDVWGQGTTVTVSS
VL: DIQLTQSPSFLSASVGDRVTITCWASQDISSYLAWYQQKPGKVPNLLIYGASSLQPGVPSRFSGSGSGTEFTLTISSLQPEDFATYYCQQLNNYPTFGGGTKLEIKR
notes: as for B1
B4: H4H2143P (antibody, V domains shown)
VH: EVQLVESGGGLVQPGRSLRLSCAASGFTFGDYAMHWVRQAPGKGLEWVSGINLNSGTIGYADSVKGRFTISRDNAKNSLYLQMNSLRAEDTAFYYCAKDIDGYYHYAMDVWGQGTTVTVSS
VL: DVVMTQSPSFLSASVGDRVTITCWASQGISSYLAWYQQKPGKAPKLLIYDASTLESGVPSRFSGSGSGTEFTLTISNLQPEDFATYYCQQVNSYPLTFGGGTKVEIKR
notes: as for B1
B5: H4H2147P (antibody, V domains shown)
VH: QVQLVESGGGLVKPGGSLRLSCAASGFTFSDFNMGWIRQAPGKGLEWVSHISGSGNVIYYADSVKGRFAISRDNGKNSLYLQVNSLRAEDTAVYYCARDIGDSDAFDIWGQGTMVTVSS
VL: B4 VL with V2I, V3Q, M4L, G28D, D50G, N77S, F83V, V91L, S93T
notes: as for B1
B6: H4H2151P (antibody, V domains shown)
VH: QVQLVESGGGVVQPGRSLRLSCAASGFTFSNYGMHWVRQAPGKGLEWVARIWYDGSNKYYADSVKGRFTISRDSSKNTLYLQMNSLRAEDTAVYYCAREGEQNLDYYPLDVWGQGTTVTVSS
VL: DIVMTQSPSSLSASVGDRVTITCRASQDIRNDLGWYQQKPGKAPKLLIYAASSLQTGVPSRFSGSVSGTDFTLTISSLQPEDFATYYCLQDYTYPLTFGGGTKVEIK
notes: as for B1
B7: H4H2148P (antibody, V domains shown)
VH: EVQLVESGGGLVHPGRSLRLSCAASGFTFDDYAMHWVRQSPGKGLEWVSGISWNSVIKHSTDSVRGRFTISRDNAKNSLYLQMNSLKPEDTAFYYCAKDEDDWNYLDYWGQGTLVTVSS
VL: DIQMTQSPSSVSASVGDRVTITCRASQDINSWLAWYQQKPGKAPKLLIYTSSNLQSGVPSRFSGSGSGTDFTLTISSLQPEDFATYYCQQSDSFPFTFGPGTKVDIKR
notes: as for B1
B8: H4H2154P (antibody, V domains shown)
VH: QVQLQESGPGLINPSQTLSVTCTVSGGSISSGGYYWTWIRQHPGKGLEWIGYISYSGNTNYNPSLKSRVTISVDTAKNQFSLKLSSVTAADTAVYFCARDSDVDTAMVDGIDIWGQGTMVTVSS
VL: B7 VL with N30S, K42R, S51A, N53S, Y87F, S91A, D92N
notes: as for B1
B9: H4H1819N (antibody, human IgG4, V domains shown)
VH: EVQLVESGGGVVRPGGSLRLSCAASGFTFDDYAMHWVRQAPGKGLEWVAGISWNSGSIDYADSVKGRFTISRDNAKNSLYLQMNSLRAGDTALYYCAKDILDLDYYGLDVWGQGTTVTVSS
VL: DIQMTQSPSSLSASVGDRVTITCRASQDISSYLAWYQQKPGKVPNLLIYDASSLQSGVPSRFSGSGSGTDFTLTLSSLQPEDFASYYCQNYNSAPYTFGQGTKLEIK
notes: Human IgG4 Fc (prefix H4H)
B10: H4H2084P (antibody, human IgG4, V domains shown)
VH: QVQLVESGGGVVQSGKSLRLSCVASGFTFSNYGMHWVRQTPGKGLEWVARIWFDGTNKYYTDSVKGRFTLSRDSSKNTLYLQMNSLRAEDTAVYFCAREESLELDHYVMDVWGQGTTVTVSS
VL: AIQMTQSPSSLSASVGDRVTITCRASQDIRDDLGWFQQKPGKAPNLLIYAASSLQSGVPSRFSGSGSGTDFTLTISSLQPEDFATYYCLQDYNYPLTFGGGTKVEIKR
notes: Human IgG4 Fc (prefix H4H)
B11: H4H1821N (antibody, human IgG4, V domains shown)
VH: EVQLVESGGGLVQPGRSLRLSCAASGFTFDDYAMHWVRQAPGKGLEWVSSISWNSGSIGYADSVKGRFTISRDNAKNSLYLQMNSLKPEDTALYYCTKDTDYGDYLDAFDIWGQGTMVAVAS
VL: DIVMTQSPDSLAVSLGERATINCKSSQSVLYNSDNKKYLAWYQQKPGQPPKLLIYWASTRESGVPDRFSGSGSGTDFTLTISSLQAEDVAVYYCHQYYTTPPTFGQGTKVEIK
notes: Human IgG4 Fc (prefix H4H); In the H/D exchange experiment it was covalently attached to NHS agarose beads

Numbering of substitutions follows the chain as printed. Names and notes keep the numbering of the source.

One test deals with hErbB3.mmh (soluble monomeric human ErbB3 extracellular domain with C-terminal myc-myc-hexahistidine tag) (human, UniProt P21860 20-642). Description: SPR (Biacore), 25 C, mAb capture format. How it is done: (§1) (Tables 2-4). Measurements were conducted on a Biacore 2000 or T100 instrument. […] Kinetic association (kₐ) and dissociation (kd) rate constants were determined by processing and fitting the data to a 1:1 binding model using Scrubber 2.0 curve fitting software.
For orientation: Surface plasmon resonance follows binding to a sensor surface in real time, without labels.
The term Kd denotes the equilibrium constant for the complex coming apart. A low value points to tighter binding. The term koff denotes a measure of how fast the partners let go of each other. Read a high koff as fast dissociation. What is called kon is the rate constant with which the complex forms. Take B1: binding was put at a Kd of 0.0124 nM, the T½ is 5.13 h, the off-rate (koff) amounted to 3.46e-05 s⁻¹ and the on-rate (kon) came to 2.79e+06 M⁻¹ s⁻¹.

In turn, B2 gave a Kd of 0.0117 nM, a T½ of 5.18 h, a koff of 3.43e-05 s⁻¹ and an association rate constant (kon) of 2.94e+06 M⁻¹ s⁻¹.

For the molecule B3, binding was characterised by a dissociation constant (Kd) of 0.115 nM, the T½ was 2.65 h, the off-rate constant (koff) was found to be 6.72e-05 s⁻¹ and the kon worked out at 582000 M⁻¹ s⁻¹.

For the molecule B4, the Kd came to 0.0531 nM, the T½ turned out to be 1.82 h, the off-rate (koff) was determined as 9.73e-05 s⁻¹ and the kon is 1.83e+06 M⁻¹ s⁻¹.

Molecule B5 had a Kd of 0.0438 nM, a T½ of 1.63 h, a koff of 0.000108 s⁻¹ and a kon of 2.47e+06 M⁻¹ s⁻¹.

With B6, binding was put at a Kd of 0.00942 nM, the T½ was found to be 6.2 h, the off-rate constant (koff) is 2.86e-05 s⁻¹ and the kon amounted to 3.04e+06 M⁻¹ s⁻¹.

Molecule B7 displayed an equilibrium dissociation constant (Kd) of 0.00871 nM, a T½ of 5.12 h, an off-rate (koff) of 3.47e-05 s⁻¹ and an on-rate constant (kon) of 3.98e+06 M⁻¹ s⁻¹.

The molecule B8 returned a Kd of 0.0176 nM, a T½ of 4.75 h, a dissociation rate constant (koff) of 3.73e-05 s⁻¹ and a kon of 2.13e+06 M⁻¹ s⁻¹.

For the next test, the target named is T1, hErbB3.mFc (soluble dimeric human ErbB3 …). Put plainly: SPR (Biacore), 25 C, mAb capture format. How it is done: as §1
The molecule B1 yielded a Kd of 0.000435 nM, a T½ of 89.9 h, a koff of 1.98e-06 s⁻¹ and a kon of 4.54e+06 M⁻¹ s⁻¹.

On to B2, for which binding was characterised by a dissociation constant (Kd) of 0.000337 nM, the T½ worked out at 143 h, the off-rate (koff) is 1.24e-06 s⁻¹ and the kon worked out at 3.67e+06 M⁻¹ s⁻¹.

Molecule B3 registered a dissociation constant (Kd) of 0.014 nM, a T½ of 15.8 h, an off-rate constant (koff) of 1.13e-05 s⁻¹ and a kon of 800000 M⁻¹ s⁻¹.

In the case of B4, binding was put at a Kd of 0.00175 nM, the T½ came to 38.4 h, the koff stood at 4.63e-06 s⁻¹ and the on-rate (kon) is 2.86e+06 M⁻¹ s⁻¹.

B5: the equilibrium dissociation constant (Kd) was 0.0015 nM, the T½ worked out at 38.8 h, the koff was 4.58e-06 s⁻¹ and the on-rate (kon) was 3.33e+06 M⁻¹ s⁻¹.

In the case of B6, the dissociation constant (Kd) was determined as 0.000213 nM, the T½ came out at 186 h, the off-rate constant (koff) is 9.52e-07 s⁻¹ and the kon is 4.48e+06 M⁻¹ s⁻¹.

Regarding B7, the affinity, expressed as Kd, was 0.000295 nM; the T½ was found to be 102 h; the dissociation rate constant (koff) is 1.74e-06 s⁻¹; the on-rate (kon) came out at 5.91e+06 M⁻¹ s⁻¹.

For the molecule B8, the affinity, expressed as Kd, was 0.0003 nM; the T½ worked out at 182 h; the off-rate constant (koff) was 9.77e-07 s⁻¹; the kon was 3.25e+06 M⁻¹ s⁻¹.

A further test deals with T2, ErbB3-mFc. Description: blocking ELISA: antibody (0-50 nM) + 50 pM ErbB3-mFc, binding to coated neuregulin1b. An excerpt:
To further characterize anti-hErbB3 mAbs of the present invention, their ability to block ligand binding was examined via ELISA. […] Plates were washed and non-sequestered (plate bound) ErbB3 was detected with an anti-Fc poly conjugated with horseradish peroxidase (HRP). Plates were developed with TMB (3,3′,5,5′-tetramethylbenzidine) and neutralized with sulfuric acid before reading absorbance at 450 nm on a Victor X5 plate reader. Data analysis used a sigmoidal dose-response model within Prism™ software. […] Maximal blocking for each antibody was calculated by taking the difference in absorbance from zero to 50 nM antibody on the inhibition curve, divided by the difference in absorbance from 50 pM to zero ErbB3 on the dose curve.
A general note: ELISA stands for enzyme-linked immunosorbent assay.
Broadly, the IC50 is the concentration at which inhibition is half-maximal. As for B9, the IC50 turned out to be 0.02 nM and the “Maximal Blocking (%)” value stood at 99%.

In the case of B10, the IC50 is 0.0873 nM and the “Maximal Blocking (%)” value came to 95%.

In the case of B11, the concentration for half-maximal inhibition (IC50) worked out at 0.018 nM and the “Maximal Blocking (%)” value was found to be 99%.
